In test [1] the target is T1, human c-Met/Fc fusion protein (R&D Systems) (human, UniProt P08581 25-932).
T1 construct: Bought reagent, coated on ELISA plates; also called human c-Met/Fc protein; not shown: Fc part of the bought fusion; not described
The test can be described thus: ELISA, hybridoma culture on plate-bound human c-Met/Fc fusion protein. As to the method:
The hybridoma cell culture obtained in Reference Example 1.1.2 was added in an amount of 50 μL to each well of the plates and incubated for 1 hour. The cells remaining unreacted were washed out with a sufficient amount of Tris-buffered saline and Tween 20 (TBST). Goat anti-mouse IgG-horseradish peroxidase (HRP) was added to the plates and incubated for 1 hour at room temperature. The plates were washed with a sufficient amount of TBST, followed by reacting the peroxidase with a substrate (OPD). Absorbance at 450 nm was measured on an ELISA reader.
In general terms: An ELISA detects its analyte on a solid surface through an enzyme-linked reagent.

Test [2] deals with T2, EGFR-Fc (#344-ER, R&D Systems) (UniProt P00533 25-645).
T2 construct: Bought reagent; not shown: Fc part of the bought fusion; not described
The test can be described thus: SPR (Biacore T100), MEH3-01S captured by human Fab binder on CM5 chip, EGFR-Fc injected. As to the method:
(§1) The affinity of the anti-c-Met/anti-EGFR/anti-HER3 multispecific antibody prepared in Example 2 to EGFR and HER3 was measured. A human Fab binder (GE Healthcare) was immobilized at the surface of a CM5 chip (#BR-1005-30, GE) according to the manufacturer's specifications. About 90 to 120 RU of the MEH3-01S was captured, and the EGFR-Fc(#344-ER, R&D Systems) or HER3-Fc(#344-ER, R&D Systems) was injected at various concentrations into the captured antibody. 10 mM Glycine-HCl (pH 1.5) solution was injected thereto to regenerate the surface.
(§2) To examine affinity of the antibody, the data obtained from this experiment was fitted using BIAevaluation software (GE Healthcare, Biacore T100 evaluation software).
In general terms: Surface plasmon resonance follows binding to a sensor surface in real time, without labels.

Test [3] addresses T3, HER3-Fc (#344-ER, R&D Systems) (UniProt P21860 20-643).
T3 construct: Bought reagent; not shown: Fc part of the bought fusion; not described
The test is described as follows: SPR (Biacore T100), MEH3-01S captured by human Fab binder on CM5 chip, HER3-Fc injected. As to the method: as §1, §2

Bounds are passed on as bounds.

The source of these data is patent US20150322165A1 (SAMSUNG ELECTRONICS, published 2015).

T3 sequence (P21860 20-643 limits assumed): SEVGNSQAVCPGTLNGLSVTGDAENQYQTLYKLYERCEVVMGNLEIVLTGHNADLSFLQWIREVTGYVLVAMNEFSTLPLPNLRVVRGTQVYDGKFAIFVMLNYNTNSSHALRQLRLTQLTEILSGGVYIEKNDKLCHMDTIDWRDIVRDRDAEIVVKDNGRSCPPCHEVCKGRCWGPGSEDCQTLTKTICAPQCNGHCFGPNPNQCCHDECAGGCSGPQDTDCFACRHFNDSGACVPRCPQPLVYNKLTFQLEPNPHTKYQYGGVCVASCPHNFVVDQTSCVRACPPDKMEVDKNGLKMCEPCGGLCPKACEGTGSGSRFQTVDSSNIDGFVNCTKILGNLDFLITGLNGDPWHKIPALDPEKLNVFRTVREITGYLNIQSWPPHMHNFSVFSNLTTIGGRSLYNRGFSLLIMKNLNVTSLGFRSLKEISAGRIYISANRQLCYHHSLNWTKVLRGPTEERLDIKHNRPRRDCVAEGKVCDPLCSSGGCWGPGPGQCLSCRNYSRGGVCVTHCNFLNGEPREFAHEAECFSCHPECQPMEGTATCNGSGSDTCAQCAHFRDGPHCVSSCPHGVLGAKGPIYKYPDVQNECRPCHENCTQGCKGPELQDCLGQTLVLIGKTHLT
T1 sequence (P08581 25-932 limits assumed): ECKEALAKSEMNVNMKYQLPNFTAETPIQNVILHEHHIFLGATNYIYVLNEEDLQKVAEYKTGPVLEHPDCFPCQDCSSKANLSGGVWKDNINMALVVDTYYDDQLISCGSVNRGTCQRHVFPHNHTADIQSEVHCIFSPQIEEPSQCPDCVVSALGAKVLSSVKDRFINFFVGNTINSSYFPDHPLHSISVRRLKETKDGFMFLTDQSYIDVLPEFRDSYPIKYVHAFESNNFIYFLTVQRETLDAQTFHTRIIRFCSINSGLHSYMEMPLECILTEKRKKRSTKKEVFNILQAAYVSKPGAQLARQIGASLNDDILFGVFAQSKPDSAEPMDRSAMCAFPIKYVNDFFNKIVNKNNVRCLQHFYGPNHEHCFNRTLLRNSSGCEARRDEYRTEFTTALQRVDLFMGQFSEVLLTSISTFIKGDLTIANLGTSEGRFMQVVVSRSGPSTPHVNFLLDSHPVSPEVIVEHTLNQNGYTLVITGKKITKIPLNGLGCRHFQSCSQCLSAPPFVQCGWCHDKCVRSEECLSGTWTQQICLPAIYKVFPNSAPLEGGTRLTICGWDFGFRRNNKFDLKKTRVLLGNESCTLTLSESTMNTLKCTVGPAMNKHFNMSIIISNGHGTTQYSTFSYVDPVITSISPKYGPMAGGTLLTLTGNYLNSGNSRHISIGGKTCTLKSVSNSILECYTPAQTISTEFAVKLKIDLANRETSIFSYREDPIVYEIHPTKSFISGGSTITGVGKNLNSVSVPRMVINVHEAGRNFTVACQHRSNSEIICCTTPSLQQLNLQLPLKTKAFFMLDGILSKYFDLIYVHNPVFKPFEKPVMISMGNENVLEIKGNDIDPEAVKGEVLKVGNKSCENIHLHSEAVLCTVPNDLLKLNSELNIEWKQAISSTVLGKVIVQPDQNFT

B1: AbF46, a mouse antibody to c-Met (antibody, V domains shown)
VH: EVKLVESGGGLVQPGGSLRLSCATSGFTFTDYYMSWVRQPPGKALEWLGFIRNKANGYTTEYSASVKGRFTISRDNSQSILYLQMDTLRAEDSATYYCARDNWFAYWGQGTLVTVSA
VL: DILMTQSPSSLTVSAGEKVTMSCKSSQSLLASGNQNNYLAWHQQKPGRSPKMLIIWASTRVSGVPDRFIGSGSGTDFTLTINSVQAEDLAVYYCQQSYSAPLTFGAGTKLELK
notes: Tested as hybridoma culture supernatant in the selection ELISA; also called monoclonal antibody of hybridoma KCLRF-BP-00220
As to B1, the binding result in test [1] is listed as “binds”.

B2: anti-c-Met/anti-EGFR/anti-HER3 multispecific antibody MEH3-01S (bispecific antibody, human IgG2, kappa)
heavy: EVQLVESGGGLVQPGGSLRLSCAASGFTFTDYYMSWVRQAPGKGLEWLGFIRNKANGYTTEYSASVKGRFTISRDNSKNTLYLQMNSLRAEDTAVYYCARDNWFAYWGQGTLVTVSSASTKGPSVFPLAPCSRSTSESTAALGCLVKDYFPEPVTVSWNSGALTSGVHTFPAVLQSSGLYSLSSVVTVPSSNFGTQTYTCNVDHKPSNTKVDKTVERKCCVECPPCPAPPVAGPSVFLFPPKPKDTLMISRTPEVTCVVVDVSHEDPEVQFNWYVDGVEVHNAKTKPREEQFNSTFRVVSVLTVVHQDWLNGKEYKCKVSNKGLPAPIEKTISKTKGQPREPQVYTLPPSREEMTKNQVSLTCLVKGFYPSDIAVEWESNGQPENNYKTTPPMLDSDGSFFLYSKLTVDKSRWQQGNVFSCSVMHEALHNHYTQKSLSLSPGKGGGGSGGGGSGGGGSEVQLVESGGGLVQPGGSLRLSCAASGFTLSGDWIHWVRQAPGKCLEWVGEISAAGGYTDYADSVKGRFTISADTSKNTAYLQMNSLRAEDTAVYYCARESRVSFEAAMDYWGQGTLVTVSSGGGGSGGGGSGGGGSDIQMTQSPSSLSASVGDRVTITCRASQNIATDVAWYQQKPGKAPKLLIYSASFLYSGVPSRFSGSGSGTDFTLTISSLQPEDFATYYCQQSEPEPYTFGCGTKVEIK
light: DIQMTQSPSSLSASVGDRVTITCKSSQSLLASGNQNNYLAWYQQKPGKAPKMLIIWASTRVSGVPSRFSGSGSGTDFTLTISSLQPEDFATYYCQQSYSRPYTFGQGTKVEIKRTVAAPSVFIFPPSDEQLKSGTASVVCLLNNFYPREAKVQWKVDNALQSGNSQESVTEQDSKDSTYSLSSTLTLSKADYEKHKVYACEVTHQGLSSPVTKSFNRGEC
notes: DL11f scFv fused to the C-terminus of the heavy chain (Fc) of the anti-c-Met IgG2 antibody SAIT301
One may read the Kd as the free concentration of one partner at which half of the binding sites on the other are occupied at equilibrium, for simple one-to-one binding. Lower therefore signals tighter binding. As a reminder, the koff is a measure of how fast the partners let go of each other. Lower therefore signals slow dissociation. The term kon denotes the second-order rate constant of association. Low values mean slower complex formation, high ones faster complex formation. Take B2: in test [2], the affinity, expressed as Kd, was 180 pM; the koff worked out at 0.00011 s⁻¹; the kon turned out to be 1e+06 M⁻¹ s⁻¹. For the same molecule, in test [3], the Kd is < 10 pM, the koff is < 1.6e-05 s⁻¹ and the kon worked out at 3.4e+06 M⁻¹ s⁻¹.
